Source: article PMC6897951, “Unusual features of the c-ring of F1FO ATP synthases” (Scientific Reports, 2019)

Target: the molecule itself
Assay: crystal structure; in meso crystallisation (monooleoyl lipidic phase) of solubilised cF1FO, 27.4 mg/mL, 0.1 M MES pH 5.8, 1.4 M ammonium sulfate, 22 °C; space group I121; 2.3 Å

B1: c-subunit of the spinach chloroplast F1FO ATP synthase (cF1FO), as the c14-ring (natural protein, Spinacia oleracea (spinach), UniProt P69447 1-81, looked up)
chain: MNPLIAAASVIAAGLAVGLASIGPGVGQGTAAGQAVEGIARQPEAEGKIRGTLLLSLAFMEALTIYGLVVALALLFANPFV
notes: ATP synthase subunit c of the chloroplast FO, Spinacia oleracea; Native protein from leaves; also called c1 subunit; c1 protomer; source: only the c14-ring crystallised; copies: 14
stoichiometry N: 14
